Data as given in US20230414703A1 (published 2023).

B1: mouse PD-1 receptor (receptor, UniProt Q02242 25-167, looked up)
chain: LEVPNGPWRSLTFYPAWLTVSEGANATFTCSLSNWSEDLMLNWNRLSPSNQTEKQAAFCNGLSQPVQDARFQIIQLPNRHDFHMNILDTRRNDSGIYLCGAISLHPKAKIEESPGAELVVTERILETSTRYPSPSPKPEGRFQ

Experiments:
[1] = target: T1, soluble recombinant human PD-1 receptor (human, UniProt Q15116 25-167, limits assumed); experiment: clonal phage ELISA, peptide on phage, PD-1 coated well
T1 construct: also called human PD-1 receptors
T1 sequence (Q15116 25-167 limits assumed): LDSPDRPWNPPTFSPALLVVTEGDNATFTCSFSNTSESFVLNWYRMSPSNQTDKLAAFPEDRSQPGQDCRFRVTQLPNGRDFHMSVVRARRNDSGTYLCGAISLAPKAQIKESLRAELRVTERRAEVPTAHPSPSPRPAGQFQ
Source text: The TriCo-20™ (TRICO-20™) and TriCo-16™ (TRICO-16™) Phage Display Peptide Libraries (Creative Biolabs, 45-1 Ramsey Road, Shirley, NY 11967) were screened to identify binders of soluble recombinant human PD-1 receptor.

[2] = target: T1, soluble recombinant human PD-1 receptor; experiment: BIACORE T-200 SPR, PD-1 immobilised on CM5, steady state
Description: (§1) 12,000 response units (RU) of human and 6000 RU of mouse PD-1 receptors were directly immobilized on flow cell 2 and flow cell 4 of the CM5 chip by amine coupling method (EDC/NHS). The un-occupied sites were blocked with 1 M ethanol amine. […] Flow cell 1 was kept blank and used for reference subtraction. Binding of analyte to the ligand was monitored in real time.
(§2) Due to fast on rate and off rate, KD was determined by steady state equilibrium kinetics.
(§3) Chi square (χ2) analysis was carried out between the actual sensorgram and a sensorgram generated from the BIANALYSIS® software (black line) to determine the accuracy of the analysis. A χ2 value within 1-2 is considered significant (accurate) and below 1 is highly significant (highly accurate).

mouse PD-1 receptor = target: B1; experiment: as above
Description: as §1, §2, §3

[3] = target: human PD-1 on Jurkat cells (human, UniProt Q15116 25-288); experiment: cell-based or functional assay
Chain of human PD-1 on Jurkat cells (Q15116 25-288): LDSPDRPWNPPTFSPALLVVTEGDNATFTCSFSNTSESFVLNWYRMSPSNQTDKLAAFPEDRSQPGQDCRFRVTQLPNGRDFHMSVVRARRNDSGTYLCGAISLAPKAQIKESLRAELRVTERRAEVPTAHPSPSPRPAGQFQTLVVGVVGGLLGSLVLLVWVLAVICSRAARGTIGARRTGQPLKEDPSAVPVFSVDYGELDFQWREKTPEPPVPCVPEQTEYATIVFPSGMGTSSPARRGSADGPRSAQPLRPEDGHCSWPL

Mouse PD-L1 = Mouse PD-L1 (mouse, UniProt Q9EP73 19-239, limits assumed); experiment: BIACORE T-200 SPR, PD-1 immobilised on CM5, steady state
Chain of Mouse PD-L1 (Q9EP73 19-239 limits assumed): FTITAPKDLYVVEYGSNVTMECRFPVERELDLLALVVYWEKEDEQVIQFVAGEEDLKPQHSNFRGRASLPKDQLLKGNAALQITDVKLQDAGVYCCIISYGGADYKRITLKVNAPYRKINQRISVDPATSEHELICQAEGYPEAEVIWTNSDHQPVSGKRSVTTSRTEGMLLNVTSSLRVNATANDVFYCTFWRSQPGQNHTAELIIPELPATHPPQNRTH

Binder	Clonal Phase ELISA coated signal [1]	Ka [2] [M⁻¹]	Kd [2] [µM]	Ka (mouse PD-1 receptor) [M⁻¹]	Kd (mouse PD-1 receptor) [µM]	peak-fold inhibition (luciferase reporter expression) [3] [fold]	Ka (Mouse PD-L1) [M⁻¹]	Kd (Mouse PD-L1) [µM]
HHHQVYQVRSHWTGMHSGHD (Found by phage display) [peptide HD20]	0.281	318000	3.41	4250	235	~1.5	–	–
WNLPASFHNHHIRPHEHEWIQ (also called WQ-21) [peptide WQ20]	0.275	3280	305	1310	761	~1.5	–	–
SSYHHFKMPELHFGKNTFHQ (Found by phage display) [peptide SQ20]	0.284	194000	5.16	21400	46.8	~1.5	–	–
QTRTVPMPKIHHPPWQNVVP (Found by phage display) [peptide QP20]	0.851	93600	10.7	18000	55.4	~1.5	–	–
B1	–	–	–	–	–	–	2.75e+06	0.364
